Assay results reported in JP2020075879A (dated 2020).

Target: T1, C末端FLAGタグを有する切り捨てられたヒトRNF43 (Ba/F3 E12細胞に発現) (human, UniProt Q68DV7 24-237)
T1 construct: also called E12細胞株; Ba/F3 E12トランスフェクタント
T1 sequence: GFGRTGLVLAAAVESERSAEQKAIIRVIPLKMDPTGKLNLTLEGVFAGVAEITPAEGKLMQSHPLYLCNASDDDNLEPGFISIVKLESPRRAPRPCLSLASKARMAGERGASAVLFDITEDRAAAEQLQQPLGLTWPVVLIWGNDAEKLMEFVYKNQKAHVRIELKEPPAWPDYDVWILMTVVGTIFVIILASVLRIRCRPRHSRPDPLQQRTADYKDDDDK
Experiment: flow cytometry on Ba/F3 E12 cells, antibody at 2.5 microg/ml, PE anti-human IgG detection

B1: 抗RNF43単一特異性抗体RNN0802 (antibody, human IgG1, kappa, N297A, V domains shown)
VH: QSLEESGGRLVTPGGSLTLTCRVSGFSLSNYDMSWVRQAPGKGLEWIGFITSSGRTYYASWAKGRFTISKTSTMVDLKITSPTTEDTATYFCARDFENDDSAMWGPGTLVTVSS
VL: DVVMTQTPSSVSAAVGGTVTINCQASQSVYDNNLAWYQQKPGQPPKLLIYKASKLASGVPSRFKGSGSGTEFTLTISDLECADAATYYCQSNYYSNTNGLGSFGGGTKVEIKR
notes: also called 単一特異的RNN0802; 単一特異的RNN0802(二価IgG)
- binding result: binds
